Data on three molecules can be found in US20200392247A1 (MCMASTER UNIVERSITY, published 2020).

Test [1] concerns the target T1, recombinant HER-2 (UniProt P04626 23-652, limits assumed).
T1 construct: also called recombinant HER-2 protein; HER-2 (erbB-2)
In words: flow cytometry of engineered T cells stained with recombinant HER-2. On the procedure: The chimeric receptors were detected by incubation with recombinant HER-2. The Anti-HER-2 DARPin Tri-TAC was expressed well on the surface of the engineered T cells. However, its maximal surface expression was lower compared to the Anti-HER-2 DARPin CAR construct. […] T cells were activated with anti-CD3/anti-CD28 Dynabeads and engineered with lentiviruses encoding the Tri-TAC, CAR or no receptor (control). After 2 weeks, the CAR and control cultures had grown to similar numbers while the Tri-TAC cultures grew slightly more slowly.

Test [2] deals with β-Actin (UniProt P60709 1-375). The experiment in a line: immunoprecipitation of the Tri-TAC with recombinant HER-2 beads from 293TM cells, Western blot. Here is the method:
(§1) FIG. 5 illustrates Lck interaction with the Tri-TAC. In FIG. 5A, 293TM cells were engineered to express Lck in combination with either the full-length Tri-TAC or a Tri-TAC variant that lacked the cytosolic domain that interacts with Lck. The Tri-TAC receptors were immunoprecipitated with beads carrying recombinant HER-2 protein. The precipitated Tri-TAC was measured by Western blot with an antibody against the myc tag. Co-precipitated Lck was identified by Western blot with an antibody against Lck. β-Actin was not pulled down and only detected in the supernatant (S). Both full length Tri-TAC and the Tri-TAC that lacked the cytosolic domain were efficiently pulled down and detected in the bound fraction (B). […] Greater amounts of Lck were co-immunopreciptated with the full-length Tri-TAC relative to the controls. […] Signal was corrected relative to the negative control.
Background: Immunoblotting shows a protein as a band on a membrane.

Test [3] concerns the target T2, Lck (UniProt P06239 1-509, limits assumed).
T2 construct: also called protein kinase Lck
In words: co-immunoprecipitation with recombinant HER-2 beads from 293TM cells, Western blot for Lck. On the procedure: as §1

T2 sequence (P06239 whole entry): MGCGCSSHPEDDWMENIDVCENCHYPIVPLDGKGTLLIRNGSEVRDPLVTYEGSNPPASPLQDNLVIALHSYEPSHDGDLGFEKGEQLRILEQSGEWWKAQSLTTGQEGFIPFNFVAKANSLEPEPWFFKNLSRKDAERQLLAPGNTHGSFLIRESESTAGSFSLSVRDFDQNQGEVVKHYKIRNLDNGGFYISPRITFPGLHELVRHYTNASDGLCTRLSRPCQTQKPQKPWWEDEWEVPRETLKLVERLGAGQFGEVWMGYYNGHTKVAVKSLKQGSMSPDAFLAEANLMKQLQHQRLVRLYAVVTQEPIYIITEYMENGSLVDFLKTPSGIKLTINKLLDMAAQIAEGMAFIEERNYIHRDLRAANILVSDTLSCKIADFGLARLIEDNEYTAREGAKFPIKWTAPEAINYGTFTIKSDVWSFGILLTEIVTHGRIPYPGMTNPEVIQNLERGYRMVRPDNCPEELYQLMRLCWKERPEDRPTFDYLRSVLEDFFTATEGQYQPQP

B1: Anti-HER-2 DARPin CAR (CD28-based CAR) (other)
chain: MSRGSDLGKKLLEAARAGQDDEVRILMANGADVNAKDEYGLTPLYLATAHGHLEIVEVLLKNGADVNAVDAIGFTPLHLAAFIGHLEIAEVLLKHGADVNAQDKFGKTAFDISIGNGNEDLAEILQKLN
notes: Expressed on the surface of engineered human T cells; also called conventional CAR with the same DARPin; anti-HER-2 DARPin CD28-based CAR; not shown: rest of the CD28-based CAR (hinge, transmembrane and signalling domains)
Turning to B1, the binding result in test [1] was “binds”.

B2: Tri-TAC variant that lacked the cytosolic domain that interacts with Lck (other)
chain: MSRGSDLGKKLLEAARAGQDDEVRILMANGADVNAKDEYGLTPLYLATAHGHLEIVEVLLKNGADVNAVDAIGFTPLHLAAFIGHLEIAEVLLKHGADVNAQDKFGKTAFDISIGNGNEDLAEILQKLNEQKLISEEDLNPGGGGGSGGGGSGGGGSGGGGSGSMDIQMTQTTSSLSASLGDRVTISCRASQDIRNYLNWYQQKPDGTVKLLIYYTSRLHSGVPSKFSGSGSGTDYSLTISNLEQEDIATYFCQQGNTLPWTFAGGTKLEIKGGGGSGGGGSGGGGSGGGGSEVQLQQSGPELVKPGASMKISCKASGYSFTGYTMNWVKQSHGKNLEWMGLINPYKGVSTYNQKFKDKATLTVDKSSSTAYMELLSLTSEDSAVYYCARSGYYGDSDWYFDVWGQGTTLTVFSTSGGGGSLESGQVLLESNIKVLPTWSTPVQPMALIVLGGVAGLLLFIGLGIFF
notes: Expressed in 293TM cells; also called cytosolic deletion; TAC without cytosolic domain
In the case of B2, the binding result in test [2] and in test [3] was “no binding” each time.

B3: Anti-HER-2 DARPin Tri-TAC (full-length Trifunctional T cell-antigen coupler, configuration 1) (other)
chain: MSRGSDLGKKLLEAARAGQDDEVRILMANGADVNAKDEYGLTPLYLATAHGHLEIVEVLLKNGADVNAVDAIGFTPLHLAAFIGHLEIAEVLLKHGADVNAQDKFGKTAFDISIGNGNEDLAEILQKLNEQKLISEEDLNPGGGGGSGGGGSGGGGSGGGGSGSMDIQMTQTTSSLSASLGDRVTISCRASQDIRNYLNWYQQKPDGTVKLLIYYTSRLHSGVPSKFSGSGSGTDYSLTISNLEQEDIATYFCQQGNTLPWTFAGGTKLEIKGGGGSGGGGSGGGGSGGGGSEVQLQQSGPELVKPGASMKISCKASGYSFTGYTMNWVKQSHGKNLEWMGLINPYKGVSTYNQKFKDKATLTVDKSSSTAYMELLSLTSEDSAVYYCARSGYYGDSDWYFDVWGQGTTLTVFSTSGGGGSLESGQVLLESNIKVLPTWSTPVQPMALIVLGGVAGLLLFIGLGIFFCVRCRHRRRQAERMSQIKRLLSEKKTCQCPHRFQKTCSPI
notes: also called N-Darpin Tri TAC; full length Tri-TAC
For B3, the binding result is reported as “no binding” in test [2] and “binds” in test [1].
